Here are results for 1 molecule from patent US20090180995A1, “NOVEL ANTICOAGULANT POLYPEPTIDES AND COMPLEX” (National University of Singapore, priority 2005, published 2009).

Assay [1] concerns the target FVIIa (human) (UniProt P08709).
For assay [2], the target named is FVIIa-sTF (human) (UniProt P08709). Description: cell-based or functional assay.
The target of assay [3] is FVIIa (human) (UniProt P08709). Description: cell-based or functional assay.
Assay [4] addresses FVIIa-sTF (human) (UniProt P08709). Description: non-competitive inhibition kinetics of FVIIa-sTF amidolytic activity on S-2288.

FVIIa (human), sequence (P08709 61-212 limits assumed, chain 1 of 2): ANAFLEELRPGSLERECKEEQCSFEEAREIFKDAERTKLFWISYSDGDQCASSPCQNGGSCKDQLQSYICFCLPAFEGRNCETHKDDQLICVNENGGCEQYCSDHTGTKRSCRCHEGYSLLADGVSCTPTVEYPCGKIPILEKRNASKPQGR
FVIIa (human), sequence (P08709 213-466 limits assumed, chain 2 of 2): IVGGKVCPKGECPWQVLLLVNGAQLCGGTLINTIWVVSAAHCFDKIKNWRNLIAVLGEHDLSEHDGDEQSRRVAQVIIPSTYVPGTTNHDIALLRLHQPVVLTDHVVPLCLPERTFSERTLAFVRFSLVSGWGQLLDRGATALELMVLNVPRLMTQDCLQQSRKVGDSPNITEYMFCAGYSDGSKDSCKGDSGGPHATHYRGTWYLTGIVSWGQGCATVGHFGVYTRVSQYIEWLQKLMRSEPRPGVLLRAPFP
FVIIa-sTF (human), sequence (P08709 61-212 limits assumed, chain 1 of 3): as the sequence (P08709 61-212 limits assumed, chain 1 of 2) above
FVIIa-sTF (human), sequence (P13726 33-251 limits assumed, chain 2 of 3, further chain): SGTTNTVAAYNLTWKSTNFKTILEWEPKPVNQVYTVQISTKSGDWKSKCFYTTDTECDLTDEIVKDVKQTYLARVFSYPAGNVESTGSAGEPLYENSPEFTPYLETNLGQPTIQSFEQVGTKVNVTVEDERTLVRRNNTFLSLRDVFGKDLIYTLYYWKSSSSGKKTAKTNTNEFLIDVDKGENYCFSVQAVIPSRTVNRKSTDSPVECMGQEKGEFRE
FVIIa-sTF (human), sequence (P08709 213-466 limits assumed, chain 3 of 3): as the sequence (P08709 213-466 limits assumed, chain 2 of 2) above

B1: hemextin AB complex (protein)
chain 1: LKCKNKLVPFLSKTCPEGKNLCYKMTMLKMPKIPIKRGCTDACPKSSLLVKVVCCNKDKCN
chain 2: LKCKNKVVPFLKCKNKVVPFLCYKMTLKKVPKIPIKRGCTDACPKSSLLVNVMCCKTDKCN
In assay [1], B1 had a Ka of 411000 M⁻¹, a ΔG of -7.54, a ΔH of -7.93 and a ΔS of -1.25 cal/M. Moreover, the IC50, inhibition of FVIIa amidolytic activity in the presence of sTF in assay [2] worked out at 100 nM. In assay [3], this molecule showed an IC50, inhibition of FVIIa amidolytic activity in the absence of sTF of 105 nM and an inhibitory potency towards FVIIa relative to plasma kallikrein above 50 times. The Ki in assay [4] came out at 25 nM.
